The source of these data is patent publication US20230167198A1 (University of California, published 2023).

Assay [1] has as its target T1, KIV10-P recombinant apolipoprotein(a) construct (UniProt P08519 1605-2040, limits assumed).
T1 construct: domain: KIV10 to the protease domain
The assay is described as follows: dot-blot, pattern duplicated by western blot. Here is the method: (§1) Lp(a) and array of recombinant apo(a) constructs were used to test LPA-KIV₉ binding by (A) Dot-blot (25 ng protein/dot) and (B) western blot (WB) under reducing conditions (250 ng protein/well).
(§2) Imunoblot analyses. An array of apo(a) constructs was subjected to gel electrophoresis and immunoblot analysis with LPA-KIV9. Briefly, samples (250 ng/well) were loaded in reducing loading buffer and run on a 4-12% Bis-Tris gel (Life Technologies). Gels were transferred to a PVDF membrane (Life Technologies), and the membranes were blocked with 5% nonfat dry milk in Tris-buffered saline and Tween (TBST) for 1 hour before incubation with primary antibodies (1 μg/ml in 1% BSA-TBST) overnight at 4° C., followed by incubation with secondary antibodies conjugated with horse-radish peroxidase (Cell Signaling Technology, Beverly, Mass.) for 1 hour at room temperature and by detection with KPL-TMB membrane peroxidase substrate (SeraCare, Milford, Mass., USA). A dot-blot was also performed with antigens in PBS (25 ng/dot) loaded directly on the membrane. Blocking and immunoblotting were done as described above and detected by a Super Signal West Dura substrate (Thermo Fisher Scientific, Waltham, Mass.) and an OptiChem HR imaging system (UVP, Upland, Calif.).
(§3) Determination of the binding domain of LPA-KIV₉ on apolipoprotein(a). […]
On the technique in general: In western blotting, separated proteins are transferred to a membrane and probed.

Assay [2] deals with T2, K(IV2)5 recombinant apolipoprotein(a) construct (5 copies of KIV2) (UniProt P08519 131-700, limits assumed).
T2 construct: domain: KIV2, 5 copies
T2 sequence (looked up): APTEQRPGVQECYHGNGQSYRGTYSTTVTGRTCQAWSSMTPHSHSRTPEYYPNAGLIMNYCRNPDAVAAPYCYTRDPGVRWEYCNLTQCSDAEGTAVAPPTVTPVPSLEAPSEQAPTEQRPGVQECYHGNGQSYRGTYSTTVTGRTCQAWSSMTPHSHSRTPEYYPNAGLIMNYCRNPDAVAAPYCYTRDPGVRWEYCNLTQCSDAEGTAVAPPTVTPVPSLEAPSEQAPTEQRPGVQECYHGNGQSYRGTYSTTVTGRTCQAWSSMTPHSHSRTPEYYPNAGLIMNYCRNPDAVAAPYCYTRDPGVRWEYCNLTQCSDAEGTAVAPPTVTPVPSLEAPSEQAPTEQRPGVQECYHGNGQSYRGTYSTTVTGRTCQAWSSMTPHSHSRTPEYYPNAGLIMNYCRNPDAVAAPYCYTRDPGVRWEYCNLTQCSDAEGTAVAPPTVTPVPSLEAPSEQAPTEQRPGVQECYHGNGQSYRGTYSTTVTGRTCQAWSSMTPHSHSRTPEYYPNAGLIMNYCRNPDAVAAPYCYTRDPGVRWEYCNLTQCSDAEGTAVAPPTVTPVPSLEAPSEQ
Description: dot-blot, pattern duplicated by western blot. Here is the method:
as §1, §2, §3

Assay [3] deals with T3, K(IV2)3 recombinant apolipoprotein(a) construct (3 copies of KIV2) (UniProt P08519 131-472, limits assumed).
T3 construct: domain: KIV2, 3 copies; also called apolipoprotein(a) KIV2
T3 sequence (looked up): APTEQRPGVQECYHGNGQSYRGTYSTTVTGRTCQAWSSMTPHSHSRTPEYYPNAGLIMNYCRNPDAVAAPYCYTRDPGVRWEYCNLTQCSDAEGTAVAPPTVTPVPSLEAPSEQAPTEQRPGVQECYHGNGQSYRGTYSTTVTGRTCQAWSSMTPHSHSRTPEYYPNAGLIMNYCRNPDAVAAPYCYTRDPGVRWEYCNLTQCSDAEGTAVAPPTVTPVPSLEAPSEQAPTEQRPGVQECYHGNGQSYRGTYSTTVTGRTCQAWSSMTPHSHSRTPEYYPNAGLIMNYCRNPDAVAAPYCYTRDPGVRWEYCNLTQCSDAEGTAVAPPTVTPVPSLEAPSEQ
The assay is described as follows: ELISA of hybridoma subclones on coated antigen. Here is the method:
(§4) (A) Mouse plasma titers of Lp(a)-specific antibodies: Following the first boost target-specific antibody titers were determined by ELISA against immobilized antigen by screening serial dilutions of the serum. The graph represents the mean of technical triplicates measurements at 1:400 plasma dilution. (B) Hybridoma screening: 576 hybridoma colonies were collected and expanded. Supernatants were screened by ELISA against the target antigen Lp(a) and counter-screened against antigen K(IV₂)₃. […] (C) Limiting dilution: To ensure monoclonality, 10 positive colonies were subjected to 2 cycles of limiting dilutions, using semi-solid gel without hypoxanthine-aminopterin-thymidine medium. Collected subclones were tested by ELISA. Colony #1 found to specifically binds Lp(a), but not to plasminogen and KIV₂. […] Colony 1 was tested 5 times and designated LPA-KIV₉. (D) Purified LPA-KIV₉ binding to Lp(a) (5 ug/ml) was tested by ELISA. […] Mean±SD.
(§5) ELISA with direct antigen plating to assess binding of hybridoma generated antibodies. […] Bound IgG antibodies were detected using an anti-mouse IgG-alkaline phosphatase (ALP) conjugate (Sigma-Aldrich, St. Louis, Mo.), Lumi-Phos 530 substrate (Lumigen, Southfield, Mich.) and a luminescence plate reader (BioTek, Vermont).
In general terms: In an ELISA, binding on a coated surface is turned into a signal by an enzyme label.

Assay [4] has as its target T4, human plasminogen (R&D, Minneapolis, Minn.) (human, UniProt P00747 20-810).
T4 construct: Bought reagent
Description: ELISA of hybridoma subclones on coated antigen. Here is the method: as §4, §5

T1 sequence (P08519 1605-2040 limits assumed): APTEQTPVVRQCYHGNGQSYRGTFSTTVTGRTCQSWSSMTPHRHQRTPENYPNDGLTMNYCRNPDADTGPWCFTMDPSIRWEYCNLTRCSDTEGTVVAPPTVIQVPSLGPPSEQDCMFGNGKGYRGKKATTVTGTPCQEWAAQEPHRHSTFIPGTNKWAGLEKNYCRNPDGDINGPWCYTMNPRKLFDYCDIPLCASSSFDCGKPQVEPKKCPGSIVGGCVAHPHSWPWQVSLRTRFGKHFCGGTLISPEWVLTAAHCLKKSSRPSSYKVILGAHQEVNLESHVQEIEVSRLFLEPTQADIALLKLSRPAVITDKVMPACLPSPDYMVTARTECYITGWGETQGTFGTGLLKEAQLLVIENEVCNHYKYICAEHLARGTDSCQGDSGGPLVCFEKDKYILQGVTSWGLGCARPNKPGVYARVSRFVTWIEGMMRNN
T4 sequence (P00747 20-810 limits assumed): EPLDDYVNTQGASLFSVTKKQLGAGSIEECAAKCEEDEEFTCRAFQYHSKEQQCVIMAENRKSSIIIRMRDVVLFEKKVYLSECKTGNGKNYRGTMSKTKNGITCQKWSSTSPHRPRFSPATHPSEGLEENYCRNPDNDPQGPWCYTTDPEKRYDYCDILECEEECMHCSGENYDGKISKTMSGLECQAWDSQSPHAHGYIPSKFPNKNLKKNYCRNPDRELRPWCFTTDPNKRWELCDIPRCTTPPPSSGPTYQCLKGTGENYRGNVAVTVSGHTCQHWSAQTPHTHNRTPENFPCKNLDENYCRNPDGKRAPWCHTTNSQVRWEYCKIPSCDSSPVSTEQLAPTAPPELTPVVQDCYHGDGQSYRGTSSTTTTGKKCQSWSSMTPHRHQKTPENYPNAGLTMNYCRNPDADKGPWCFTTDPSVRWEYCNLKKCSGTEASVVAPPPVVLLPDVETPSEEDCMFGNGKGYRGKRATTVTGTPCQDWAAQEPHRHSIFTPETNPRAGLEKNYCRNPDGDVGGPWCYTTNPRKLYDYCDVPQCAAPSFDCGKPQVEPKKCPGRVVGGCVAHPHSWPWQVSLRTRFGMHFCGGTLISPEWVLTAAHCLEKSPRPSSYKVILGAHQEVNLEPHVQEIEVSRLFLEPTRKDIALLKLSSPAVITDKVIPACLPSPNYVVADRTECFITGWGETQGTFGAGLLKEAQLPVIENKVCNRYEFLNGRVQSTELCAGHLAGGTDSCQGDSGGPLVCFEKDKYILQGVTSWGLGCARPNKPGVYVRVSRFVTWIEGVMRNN

B1: LPA-KIV9 murine monoclonal antibody (antibody, IgG1, V domains shown)
VH: QVQLQQSGAELVRPGASVKLSCKALGYTFTDYELHWLKQTPVHGLEWIGAVHPGSGGSAYNQNFKDKATLTADKSSSTAYMELSSLTSEDSAVYYCTREGPFYWGQGTTLTVSS
VL: DVVMTQTPLSLPVSLGDQASISCRSSQSLVHSNGNAYLHWYLQKPGQSPKLLIYKVSNRFSGVPDRFSGSGSGTNFTLKISRVEAEDLGIYFCSQSTHVPLTFGAGTKLELK
notes: constant regions are not; also called Colony #1; Colony 1
Regarding B1, the binding result in assay [1] is “no binding (tested: 25 ng/dot)”; in assay [2], “no binding (tested: 25 ng/dot)”; in assay [3] it was “no binding”; in assay [4], “no binding”.
